The record followed here is patent publication US5316935A, “Subtilisin variants suitable for hydrolysis and synthesis in organic media” (California Institute of Technology, priority 1992, dated 1994).

The target of data set [1] is T1, Bacillus subtilis subtilisin E variant Q103R (Bacillus subtilis, UniProt P04189, A256V/Q209R).
T1 construct: each contain 275 residues; made in house; host or cells: Bacillus subtilis DB428 (vector pKWC), secreted into the medium
T1 sequence (P04189 107-381 Q209R/A256V): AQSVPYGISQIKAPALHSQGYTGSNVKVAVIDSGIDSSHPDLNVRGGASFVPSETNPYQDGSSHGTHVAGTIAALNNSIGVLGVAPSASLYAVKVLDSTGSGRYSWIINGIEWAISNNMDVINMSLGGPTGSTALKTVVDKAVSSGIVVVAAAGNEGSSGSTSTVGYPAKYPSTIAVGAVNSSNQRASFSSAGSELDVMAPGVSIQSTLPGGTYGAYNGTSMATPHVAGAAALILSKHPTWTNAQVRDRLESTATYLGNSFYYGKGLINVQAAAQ
As to the kind of experiment: Amidase activity: hydrolysis of p-nitroanilide peptide substrates. The format is biochemical. The note with it: 0.1M Tris-HCl, 10 mM CaCl2, pH 8, 37° C. How it is done: (§1) The amidase activities of subtilisin and derivatives thereof were measured on the substrate succinyl-Ala-Ala-Pro-Phe-p-nitroanilide (sAAPF-pna) at 37° C. in 0.1M Tris-HCl, pH 8.0 and 10 mM CaCl2. Assays were initiated by mixing the enzyme, the substrate and the reaction buffer. The amount of released p-nitroaniline was measured spectrophotometrically at 410 nm as a function of time. KM and kcat values for hydrolysis of sAAPF-pna by the subtilisin variants were obtained by nonlinear regression of the data using the program Enzfitter (Biosoft).
(§2) For activity measurements in mixed buffer (containing DMF), a portion of the aqueous buffer was replaced by the percentage (w/v) of DMF indicated in Table II. Kinetic constants are reported in Table II for the wild-type enzyme and six variants with 3-10 amino acid substitutions in 20% and 40% DMF.
(§3) The effects of different amino acid substitutions at position 103 on amidase activity were investigated. The variants Q103E, Q103K, and Q103S were constructed by PCR site-directed mutagenesis as described in Example VIII. The amidase activities of these variants and the variant Q103R identified by random mutagenesis and screening for enhanced activity in the presence of DMF (Example IV) are compared in Table III. The reactions were carried out in 10% DMF according to the procedures outlined in Examples XI and XII.
(§4) The effects of the Q103R amino acid substitution on amidase activity were investigated for two substrates, succinyl-Ala-Ala-Pro-Phe-p-nitroanilide (negatively-charged succinyl group at the peptide N-terminus) and Ala-Ala-Pro-Phe-p-nitroanilide (positively charged N-terminus) in 10% DMF.

Substrate in data set [2]: C[C@H](NC(=O)CCC(=O)O)C(=O)N[C@@H](C)C(=O)N1CCC[C@H]1C(=O)N[C@@H](Cc1ccccc1)C(=O)Nc1ccc([N+](=O)[O-])cc1
The description is as above. The format is biochemical, Bacillus subtilis. To be noted: 0.1M Tris-HCl, 10 mM CaCl2, pH 8, 37° C.

Substrate in data set [3]: C[C@H](N)C(=O)N[C@@H](C)C(=O)N1CCC[C@H]1C(=O)N[C@@H](Cc1ccccc1)C(=O)Nc1ccc([N+](=O)[O-])cc1
The description is as above. To be noted: other: 10% DMF (Table IV), 0.1M Tris-HCl, 10 mM CaCl2, pH 8, 37° C. It is filed as biochemical, Bacillus subtilis.

Substrate in data set [4]: C[C@H](NC(=O)CCC(=O)O)C(=O)N[C@@H](C)C(=O)N1CCC[C@H]1C(=O)N[C@@H](Cc1ccccc1)C(=O)Nc1ccc([N+](=O)[O-])cc1
Described as above. The format is biochemical, Bacillus subtilis. To be noted: other: 0% DMF, 0.1M Tris-HCl, 10 mM CaCl2, pH 8, 37° C. The protocol:
as §1, §2

Substrate in data set [5]: C[C@H](NC(=O)CCC(=O)O)C(=O)N[C@@H](C)C(=O)N1CCC[C@H]1C(=O)N[C@@H](Cc1ccccc1)C(=O)Nc1ccc([N+](=O)[O-])cc1
As to the kind of experiment: Amidase activity: hydrolysis of p-nitroanilide peptide substrate. The format is biochemical, Bacillus subtilis. To be noted: other: 0% DMF, 0.1M Tris-HCl, 10 mM CaCl2, pH 8, 37° C. The protocol:
as §1, §2

Substrate in data set [6]: C[C@H](NC(=O)CCC(=O)O)C(=O)N[C@@H](C)C(=O)N1CCC[C@H]1C(=O)N[C@@H](Cc1ccccc1)C(=O)Nc1ccc([N+](=O)[O-])cc1
The data set is described as follows: Amidase activity: hydrolysis of p-nitroanilide peptide substrates. It is filed as biochemical, Bacillus subtilis. To be noted: 0.1M Tris-HCl, 10 mM CaCl2, pH 8, 37° C. How it is done: as §1, §2, §3, §4
This is another data set of the same source.

Substrate in data set [7]: C[C@H](NC(=O)CCC(=O)O)C(=O)N[C@@H](C)C(=O)N1CCC[C@H]1C(=O)N[C@@H](Cc1ccccc1)C(=O)Nc1ccc([N+](=O)[O-])cc1
As to the kind of experiment: Amidase activity: hydrolysis of p-nitroanilide peptide substrate. It is filed as biochemical, Bacillus subtilis. To be noted: other: 10% DMF, 0.1M Tris-HCl, 10 mM CaCl2, pH 8, 37° C. The protocol: as §1, §2, §3

Starred links: 1 amine or outer side, 2 acyl side, 3 side chain; linkers in the order of their positions; H or OH if unused. Residues, ends and D or L forms follow the SMILES beside them. *: point of attachment. pNA = O=[N+]([O-])c1ccc(N*)cc1; Suc = O=C(CCC(=O)[*:2])[*:1]

One may read the Km as the concentration of substrate that gives half-maximal velocity. By kcat is commonly meant the number of substrate molecules converted per active site and unit of time at saturation.

In the case of `C[C@H](N)C(=O)N[C@@H](C)C(=O)N1CCC[C@H]1C(=O)N[C@@H](Cc1ccccc1)C(=O)Nc1ccc([N+](=O)[O-])cc1` [AAPFpna, Ala-Ala-Pro-Phe-p-nitroanilide] (H-AAPF-pNA), in data set [1] (10% DMF (Table IV)), the Km was ≥ 37000 µM, the turnover number (kcat) was ≥ 2.6 s⁻¹ and the “kcat /KM” value amounted to 0.07 M^-1 s^-1 × 10^3.
For `C[C@H](NC(=O)CCC(=O)O)C(=O)N[C@@H](C)C(=O)N1CCC[C@H]1C(=O)N[C@@H](Cc1ccccc1)C(=O)Nc1ccc([N+](=O)[O-])cc1` [succinyl-Ala-Ala-Pro-Phe-p-nitroanilide] (Suc-AAPF-pNA), the “kcat /KM” value in data set [1] (20% DMF) came to 6.8 M^-1 s^-1 × 10^-3.

B1: Bacillus subtilis subtilisin E (subtilisin I168, aprA gene product), wild type, SEQ ID NO: 1 (Bacillus subtilis subsp. subtilis str. 168) (protein)
chain: AQSVPYGISQIKAPALHSQGYTGSNVKVAVIDSGIDSSHPDLNVRGGASFVPSETNPYQDGSSHGTHVAGTIAALNNSIGVLGVAPSASLYAVKVLDSTGSGQYSWIINGIEWAISNNMDVINMSLGGPTGSTALKTVVDKAVSSGIVVAAAAGNEGSSGSTSTVGYPAKYPSTIAVGAVNSSNQRASFSSAGSELDVMAPGVSIQSTLPGGTYGAYNGTSMATPHVAGAAALILSKHPTWTNAQVRDRLESTATYLGNSFYYGKGLINVQAAAQ
notes: each contain 275 residues; made in house; host or cells: Bacillus subtilis DB428 (vector pKWC), secreted into the medium
Turning to B1, the Km in data set [2] (other: 10% DMF (Table III)) was determined as 2900 µM; in data set [2] (other: 10% DMF (Table IV)) it was 510 µM; in data set [3] it was 7800 µM; in data set [4] it was 560 µM. Moreover, the kcat in data set [2] (other: 10% DMF (Table III)) was determined as 20 s⁻¹; in data set [2] (other: 10% DMF (Table IV)) it was 21 s⁻¹; in data set [3] it was 0.83 s⁻¹; in data set [4], 21 s⁻¹. Besides, the kcat/Km was 7.0 M^-1 s^-1 × 10^3 in data set [2] (other: 10% DMF (Table III)), 41 M^-1 s^-1 × 10^3 in data set [2] (other: 10% DMF (Table IV)), 0.11 M^-1 s^-1 × 10^3 in data set [3] and 38 M^-1 s^-1 × 10^3 in data set [4].

B2: Bacillus subtilis subtilisin E variant 4M (D60N + Q103R + N218S + D97G) (Bacillus subtilis subsp. subtilis str. 168; A256V/D166N/D203G/N324S/Q209R) (protein)
chain: AQSVPYGISQIKAPALHSQGYTGSNVKVAVIDSGIDSSHPDLNVRGGASFVPSETNPYQNGSSHGTHVAGTIAALNNSIGVLGVAPSASLYAVKVLGSTGSGRYSWIINGIEWAISNNMDVINMSLGGPTGSTALKTVVDKAVSSGIVVVAAAGNEGSSGSTSTVGYPAKYPSTIAVGAVNSSNQRASFSSAGSELDVMAPGVSIQSTLPGGTYGAYSGTSMATPHVAGAAALILSKHPTWTNAQVRDRLESTATYLGNSFYYGKGLINVQAAAQ
notes: as for B1
On to B2, for which, in data set [5], the Km was 170 µM, the kcat stood at 43 s⁻¹ and the kcat/Km was 249 M^-1 s^-1 × 10^3.

B3: Bacillus subtilis subtilisin E variant Q103R (Bacillus subtilis subsp. subtilis str. 168; A256V/Q209R) (protein)
chain: AQSVPYGISQIKAPALHSQGYTGSNVKVAVIDSGIDSSHPDLNVRGGASFVPSETNPYQDGSSHGTHVAGTIAALNNSIGVLGVAPSASLYAVKVLDSTGSGRYSWIINGIEWAISNNMDVINMSLGGPTGSTALKTVVDKAVSSGIVVVAAAGNEGSSGSTSTVGYPAKYPSTIAVGAVNSSNQRASFSSAGSELDVMAPGVSIQSTLPGGTYGAYNGTSMATPHVAGAAALILSKHPTWTNAQVRDRLESTATYLGNSFYYGKGLINVQAAAQ
notes: as for B1
In the case of B3, in data set [6] (other: 0% DMF), the Michaelis constant (Km) was determined as 250 µM and the turnover number (kcat) was 31 s⁻¹. Further, in data set [6] (other: 10% DMF (Table III)), the Km came to 1300 µM, the kcat was 34 s⁻¹ and the kcat/Km worked out at 26 M^-1 s^-1 × 10^3.

B4: Bacillus subtilis subtilisin E variant Q103S (Bacillus subtilis subsp. subtilis str. 168; A256V/Q209S) (protein)
chain: AQSVPYGISQIKAPALHSQGYTGSNVKVAVIDSGIDSSHPDLNVRGGASFVPSETNPYQDGSSHGTHVAGTIAALNNSIGVLGVAPSASLYAVKVLDSTGSGSYSWIINGIEWAISNNMDVINMSLGGPTGSTALKTVVDKAVSSGIVVVAAAGNEGSSGSTSTVGYPAKYPSTIAVGAVNSSNQRASFSSAGSELDVMAPGVSIQSTLPGGTYGAYNGTSMATPHVAGAAALILSKHPTWTNAQVRDRLESTATYLGNSFYYGKGLINVQAAAQ
notes: as for B1
As to B4, in data set [7], the Km came to 3000 µM, the catalytic constant (kcat) came to 20 s⁻¹ and the kcat/Km turned out to be 7.0 M^-1 s^-1 × 10^3.

B5: Bacillus subtilis subtilisin E variant 6M (D60N + Q103R + N218S + D97G + E156G + N181S) (Bacillus subtilis subsp. subtilis str. 168; … (protein)
chain: AQSVPYGISQIKAPALHSQGYTGSNVKVAVIDSGIDSSHPDLNVRGGASFVPSETNPYQNGSSHGTHVAGTIAALNNSIGVLGVAPSASLYAVKVLGSTGSGRYSWIINGIEWAISNNMDVINMSLGGPTGSTALKTVVDKAVSSGIVVVAAAGNGGSSGSTSTVGYPAKYPSTIAVGAVSSSNQRASFSSAGSELDVMAPGVSIQSTLPGGTYGAYSGTSMATPHVAGAAALILSKHPTWTNAQVRDRLESTATYLGNSFYYGKGLINVQAAAQ
For B5, in data set [5], the Km turned out to be 40 µM, the kcat was found to be 12 s⁻¹ and the kcat/Km was determined as 268 M^-1 s^-1 × 10^3.

B6: Bacillus subtilis subtilisin E variant 7M (D60N + Q103R + N218S + D97G + E156G + N181S + G131D) (Bacillus subtilis subsp. subtilis str. 168; … (protein)
chain: AQSVPYGISQIKAPALHSQGYTGSNVKVAVIDSGIDSSHPDLNVRGGASFVPSETNPYQNGSSHGTHVAGTIAALNNSIGVLGVAPSASLYAVKVLGSTGSGRYSWIINGIEWAISNNMDVINMSLGGPTDSTALKTVVDKAVSSGIVVVAAAGNGGSSGSTSTVGYPAKYPSTIAVGAVSSSNQRASFSSAGSELDVMAPGVSIQSTLPGGTYGAYSGTSMATPHVAGAAALILSKHPTWTNAQVRDRLESTATYLGNSFYYGKGLINVQAAAQ
On to B6, for which, in data set [5], the Km came out at 30 µM, the kcat is 18 s⁻¹ and the kcat/Km is given as 606 M^-1 s^-1 × 10^3.

B7: Bacillus subtilis subtilisin E variant 3M (D60N + Q103R + N218S) (Bacillus subtilis subsp. subtilis str. 168; A256V/D166N/N324S/Q209R) (protein)
chain: AQSVPYGISQIKAPALHSQGYTGSNVKVAVIDSGIDSSHPDLNVRGGASFVPSETNPYQNGSSHGTHVAGTIAALNNSIGVLGVAPSASLYAVKVLDSTGSGRYSWIINGIEWAISNNMDVINMSLGGPTGSTALKTVVDKAVSSGIVVVAAAGNEGSSGSTSTVGYPAKYPSTIAVGAVNSSNQRASFSSAGSELDVMAPGVSIQSTLPGGTYGAYSGTSMATPHVAGAAALILSKHPTWTNAQVRDRLESTATYLGNSFYYGKGLINVQAAAQ
notes: as for B1
B7: in data set [5], the Km was determined as 110 µM, the kcat amounted to 40 s⁻¹ and the kcat/Km was found to be 360 M^-1 s^-1 × 10^3.
